Molecular target: marh2_human MARCHF2 (UniProt Q9P0N8)
Sequence (Q9P0N8 whole entry): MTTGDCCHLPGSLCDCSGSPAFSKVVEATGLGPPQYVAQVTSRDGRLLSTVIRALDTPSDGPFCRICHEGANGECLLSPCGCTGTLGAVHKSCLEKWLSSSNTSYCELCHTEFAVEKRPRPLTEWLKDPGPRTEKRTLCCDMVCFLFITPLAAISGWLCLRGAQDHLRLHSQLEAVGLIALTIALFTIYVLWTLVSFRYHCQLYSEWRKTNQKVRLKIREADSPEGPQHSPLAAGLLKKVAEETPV

Chain of Endoplasmic reticulum-Golgi intermediate compartment protein 3 (Homo sapiens), Q9Y282 K6R;K8R (Q9Y282 whole entry K6R/K8R): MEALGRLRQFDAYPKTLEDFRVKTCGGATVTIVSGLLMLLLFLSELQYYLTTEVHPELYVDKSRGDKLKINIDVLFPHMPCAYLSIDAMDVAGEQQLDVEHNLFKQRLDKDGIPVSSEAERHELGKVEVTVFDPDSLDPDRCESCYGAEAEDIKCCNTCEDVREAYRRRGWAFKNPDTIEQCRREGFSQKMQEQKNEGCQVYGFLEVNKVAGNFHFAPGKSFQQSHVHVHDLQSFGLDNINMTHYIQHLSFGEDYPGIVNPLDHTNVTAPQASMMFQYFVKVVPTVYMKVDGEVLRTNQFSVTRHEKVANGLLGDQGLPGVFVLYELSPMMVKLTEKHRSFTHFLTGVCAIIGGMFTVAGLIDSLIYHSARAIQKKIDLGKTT

Endoplasmic reticulum-Golgi intermediate compartment protein 3 (Homo sapiens), Q9Y282 K6R;K8R
effect of a mutation on the interaction: with no effect
